{"source": "paper PMC2862297", "about": "(Journal of molecular biology, 2010)", "proteins": {"B1": {"name": "LTag108-627 deletion mutant of SV40 large T antigen (domain or fragment)", "chain": "EMPSSDDEATADSQHSTPPKKKRKVEDPKDFPSELLSFLSHAVFSNRTLACFAIYTTKEKAALLYKKIMEKYSVTFISRHNSYNHNILFFLTPHRHRVSAINNYAQKLCTFSFLICKGVNKEYLMYSALTRDPFSVIEESLPGGLKEHDFNPEEAEETKQVSWKLVTEYAMETKCDDVLLLLGMYLEFQYSFEMCLKCIKKEQPSHYKYHEKHYANAAIFADSKNQKTICQQAVDTVLAKKRVDSLQLTREQMLTNRFNDLLDRMDIMFGSTGSADIEEWMAGVAWLHCLLPKMDSVVYDFLKCMVYNIPKKRYWLFKGPIDSGKTTLAAALLELCGGKALNVNLPLDRLNFELGVAIDQFLVVFEDVKGTGGESRDLPSGQGINNLDNLRDYLDGSVKVNLEKKHLNKRTQIFPPGIVTMNEYSVPKTLQARFVKQIDFRPKDYLKHCLERSEFLLEKRIIQSGIALLLMLIWYRPVAEFAQSIQSRIVEWKERLDKEFSLSVYQKMKFNVAMGIGVLD"}}, "biological_target": "the molecule itself", "experiment": "cryo-EM structure", "data": [{"protein": "B1", "values": [{"measurement": "stoichiometry N", "value": 12}]}]}
